In experiment [1] the target is recombinant HAdV-C5 fibre knob protein (human adenovirus type 5 (HAdV-C5)).
Experiment [2] concerns the target recombinant HAdV-D49 fibre knob protein (human adenovirus type 49 (HAdV-D49)). The experiment in a line: gel electrophoresis with Coomassie staining, with or without denaturing agent; 5 µg and 10 µg of recombinant knob, with or without treatment with a denaturing agent, stained with Coomassie; validation of knob trimerisation.

In the case of “recombinant HAdV-C5 fibre knob protein (domain or fragment)”, the stoichiometry N in experiment [1] came to 3.

As to “recombinant HAdV-D49 fibre knob protein (domain or fragment)”, the stoichiometry N in experiment [2] is 3.

What is called stoichiometry N is the number of molecules, sites or subunits per partner or assembly.

(Values after PMC8402785.)
